Target: peptide derived from subunit 5 of the pertussis toxin (PTX) (…) (Bordetella pertussis)

Substance: Bordetella pertussis DsbA (BperDsbA), mature, oxidized (from UniProt Q7W0K2 28-209) (enzyme)
- fraction of reduced BperDsbA (AMS alkylation, SDS-PAGE, densitometry) after 5, 10 and 30 s of 50 uM oxidized BperDsbA with 50 uM PTX peptide: 90%

Source: publication PMC12724015
